Test results: patent US20090281024A1 (RAPTOR PHARMACEUTICALS, published 2009)
Changes are numbered by the printed parent chain. Read-outs that look alike come from different tables or passages of the source.

Experiments:
Assay in all cases: solid-phase assay, coated CR protein
MegaRAP1 d3 [1] = biological target: T1, MegaRAP1 d3 (human, UniProt P30533 235-353)
T1 construct: range 201-319 (mature RAP numbering); d3 of the variant selected on LRP2 CR89; also called RAPv2A d3; RAP v2A; not shown: N-terminal hexahistidine and S-peptide tags of pET30(+)a
T1 sequence (looked up): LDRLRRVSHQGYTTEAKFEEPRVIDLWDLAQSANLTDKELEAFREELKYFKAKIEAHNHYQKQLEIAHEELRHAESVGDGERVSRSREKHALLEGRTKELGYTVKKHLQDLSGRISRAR
Procedure: (§1) Wells were washed with TBSTC and bound ligands detected with polyclonal anti-RAP (BP41/42, 1:1,000, BioMarin). Excess primary antibody was removed and wells washed before incubation with the secondary antibody, HRP-conjugated goat anti rabbit IgG (Bio-Rad). After washing, TMB substrate solutions (Bio-Rad) were added to detect HRP. Color development was stopped with 1N HCl. Absorption at 450 nm was measured with a microplate spectrophotometer (Molecular Devices). Data were plotted and Kd values derived by non-linear regression with the assumption of single-site binding (GraphPad Prism).
One premise of this work was that amino acids at A, C, A′ and C′ within the calcium-binding loops of a CR pair were key determinants of binding affinity for RAP and would be similarly important for binding of RAP variants. To test this idea, mutant LRP2 CR89 were prepared in which the native, non-canonical residues at these positions were sequentially substituted with the non-native, canonical residues. As defined above, the A, C, A′, C′ string for LRP2 CR89 is YVWR. Mutants included LRP2 CR89Y1042W (WVWR), LRP2 CR89V1047D (YDWR), LRP2 CR89R1088D (YVWD), LRP2 CR89V1047D R1088D (YDWD), LRP2 CR89 Y1042W V1047D R1088D (WDWD), LRP2 CR89Y1042W V1047D (WDWR), LRP2 CR89Y1042W R1088D (WVWD). Binding to both RAP d3 and MegaRAP1 d3 were measured for each LRP2 CR89 mutant by solid-phase assay. […] The A′ position in LRP2 CR89 is a tryptophan, the canonical residue for wild-type RAP d3 binding, and was not mutated in our studies. […] We did see a small increase in binding of RAP d3 to the WVWD and WDWD combinations at A, C, A′ and C′.

[2] = biological target: T2, RAP d3 E251K, K256A, K270E (human, UniProt P30533 235-353)
T2 construct: range 201-319 (mature RAP numbering); Forward mutant of m1; same construct; also called RAP E251K, K256A, K270E; not shown: N-terminal hexahistidine and S-peptide tags of pET30(+)a
T2 sequence (looked up): T1 sequence (looked up) with T13S, K17E, Y49H
Procedure: as §1
(§2) Next, the binding of RAP d3 and MegaRAP1 d3 proteins to LRP1 CR3-5 and LRP2 CR89 was assessed. […] In all cases, 10 mM EGTA prevented binding of both RAP d3 and MegaRAP1 d3 to CR proteins. Since calcium was the only divalent metal ion present in the binding buffer, this observation is consistent with both RAP d3 and MegaRAP1 d3 binding to calcium-loaded CR pairs. […] Therefore, wild-type RAP d3 and MegaRAP1 d3 have inverted binding preferences for these two receptor fragments.

MegaRAP1 d3 [3] = biological target: T1, MegaRAP1 d3; remark: listed apart in the source
Procedure: as §1, §2

Kd (MegaRAP1 d3 [1]): 33 nM
Kd [2]: 114 nM
Kd (MegaRAP1 d3 [3]): 38 nM
B1: LRP2 CR89 (receptor)
chain: not shown
notes: domain: CR89; Limits of the fragment are set only by the primers LRP2CR8F and LRP2CR9R; also called YVWR; L2 CR89; not shown: N-terminal hexahistidine and S-peptide tags of pET30(+)a
